{
  "source": "the domain aggregation screens of Martell et al. (2025)",
  "data": [
    {"assay": "soluble fraction after stress (log2 fold change); higher = more stays soluble; pooled small domains, quantitative proteomics", "settings": "stress: 75 degC", "values": [
      {"sequence": "HMQSYSYYDFQKALQNKTVESVIIEPDKTVPTGTLQIQLKGDTKEELNVSDVTEVEELLQSYDVDYKLRSV", "soluble fraction (log2)": 0.0732},
      {"sequence": "HMQTASVRFADGQLEVKQKGLQRVSVYSLNGMTVANKAVQGQDYVTISLPRAAYIVKITTQNGSFTKVI", "soluble fraction (log2)": -2.18},
      {"sequence": "HMQTGRREALEAQLRETGGEAMLARLREIDPEAAARLHPADEKRVIRALEVYEETGKTITQHNLETKAVPP", "soluble fraction (log2)": 0.309},
      {"sequence": "HMQTKEVDYGTFMSMIDEKNIGTVEIGDSQIVFTDKDNKNLYETGVMNDPDLAQRLHDAGATFSS", "soluble fraction (log2)": 0.128},
      {"sequence": "HMQTLQTTSLRVSENQLFILDQQALPQEKRWLAADNVALLVDHIHTLRVRGAPLIGLSASLLLALLAGRLT", "soluble fraction (log2)": 0.0717},
      {"sequence": "HMQTMNKTNISNFEKYLNSGDVSEVIVVRNKSSVRVTLTPEALRSSEHQAVVGKNILGQENIKGPHYQFEV", "soluble fraction (log2)": -0.0414},
      {"sequence": "HMQTPPGRYRHYKGGLYEVIATARHSETLEPMTVYRALYGEQGLWVRPAAMFAEDITLEGVRQPRFARI", "soluble fraction (log2)": -2.39},
      {"sequence": "HMQTRIDISDAVLQWVVRKTQFAALPPKAAAHLTKWVRGEKKPTFNQLEEVSKATGIPLGYFFLQQPPHE", "soluble fraction (log2)": -2.19},
      {"sequence": "HMQTTEDMEINAKVDEYLREMYLWNDEYKTLNLDHNKGYEDFFYDALGSMTTNTLDKKTYVGSDGKTYYNL", "soluble fraction (log2)": -0.205},
      {"sequence": "HMQTYTYYIAKNDISIGQKITPDMLIEKQVNLGDSKDRYLSREQLETGKYIAVRQIPAGELISSASANE", "soluble fraction (log2)": 0.102},
      {"sequence": "HMQVAPQVERLLRVMGNETLSLSDIMGRMGLSDKKNFRESYLVPALRSAVIEMTIPDKPNSSLQKYRRIHE", "soluble fraction (log2)": -0.634},
      {"sequence": "HMQVEEKNKKIELYIEGKIKELESNLMYVPNENKKKLLMAFMNRNEDIEIIKTKIDTIFNKSVAAYKENM", "soluble fraction (log2)": -0.302},
      {"sequence": "HMQVIDNHWRPSRDALDILLRDGISEHFIEDAIPEFILYWRERGTQDSNWNSRFLQHIRLQWARYTNAV", "soluble fraction (log2)": -1.67},
      {"sequence": "HMQVPDLYRTLGVGRDATTEAIEAAYVGWQARLSAGEPISTQEWERLRYAHEVLSNPQRRSLYDSLVAET", "soluble fraction (log2)": -0.0937},
      {"sequence": "HMQVPVNVSMEILDWVIAHIKIDALPNQIREYLNLWVNGEKEPTFNQVEKVSKATGIPLGYFFLQTPPIED", "soluble fraction (log2)": -1.79},
      {"sequence": "HMQVQHVWNRLKRPNGDVLYEINRDHPLVSASLDAAADRGAIETLLRQIEQSLPVNQLYVDMNADEHFE", "soluble fraction (log2)": -0.602},
      {"sequence": "HMQVSDAAQLAEVVKTVLAENPAAVGDYRKGKKAAIGFLLGQVMRHMRGTANPAVARQLLEQALEDE", "soluble fraction (log2)": -0.076},
      {"sequence": "HMQVSDLSAIDSLIDKVLSEQQAAVQDFRSGQGKAMGFLIGKVMQASDGKANPKVIRELMGKKLA", "soluble fraction (log2)": 0.0534},
      {"sequence": "HMQVSIGERVKLARMSAGLNQRQLGKEMGMSAMAISKYETGEVVPNSRVLIQLSQTLHVPLDFFFRS", "soluble fraction (log2)": -3.04},
      {"sequence": "HMQVTDADFDQIRLAVLSQLKQNSLTVAELLKIIPFKEQKVMPVIRFLIDNRVLEHGTDMKLTVGNSVK", "soluble fraction (log2)": -0.223},
      {"sequence": "HMQVTIGADLAEHAARLDVQISDVVKLIKSGVSEGEIKVGLTKLETRLAHPELALVENKLAYLKALIAES", "soluble fraction (log2)": -2.27},
      {"sequence": "HMQYALEDDLDSAIKLLTGKGLSGTVAWGWSDTYINVGKKSYSMEFIAKMLLRLGEGSRVTIQVDPA", "soluble fraction (log2)": -4.62},
      {"sequence": "HMQYIINFEYSGMLLREYLRGVLGLSHGTLTALKKDPLGILLNGEHATVRAVLHAGDRLTLALE", "soluble fraction (log2)": -3.51},
      {"sequence": "HMQYKVMDVTVDGNPVIEFQNLNSKIKWIENNPDAIIQNIKTSSFEADQKRIVGTSRGPFWIVIKPDF", "soluble fraction (log2)": -0.424},
      {"sequence": "HMQYRQRRGLERMELILDAATRVVAEVGYERTTTNAIATRAGISPGSLYQYFSSKEDIASALWERYAE", "soluble fraction (log2)": -0.0812},
      {"sequence": "HMRAGEAVTGQVIGVKEDEIILSIAGSKSEGIITRSEFTNEPNVDLTTKVSVGDELEVKVLKVNDGEGMAS", "soluble fraction (log2)": -0.317},
      {"sequence": "HMRAKPLILLDGREISAEELFSLDKNSIKSIEVLKDETALAQYGEKAKNGVVLVVTKSAAAS", "soluble fraction (log2)": 0.00789},
      {"sequence": "HMRALPAGQADLLKWIDGVTPRSVEELELLSGLEPGRLSELLMELELAGIVRAVAGDSYIKISKS", "soluble fraction (log2)": -0.649},
      {"sequence": "HMRAPETEITYTEFKTALRAGQIETATVGIEQISGKLTDGDLYRTVRVDDPDLLKDLEANHVNAAGRV", "soluble fraction (log2)": 0.0537},
      {"sequence": "HMRASQGRNELILSLLRGHELSILELLEGLEKQGVRVARPTLTKDLNELVSRGSVEATAPPRSKNRTYRIP", "soluble fraction (log2)": -0.986},
      {"sequence": "HMRDFLMDSTKNKLSKDQVQLSRIFLWFGNDFGSKAERLEFISRYSGMDFNQPKIDYLTYDWSLNQ", "soluble fraction (log2)": 0.286},
      {"sequence": "HMRDLITYVVQINGKLRGKLEVAPDTDPEELKALALEVENVKRSLEGWVVKKVIVVPGKMVSIAAG", "soluble fraction (log2)": -1.77},
      {"sequence": "HMRDLLPHFQRELQFLQTHRNEFAAAYPELGGRLATASDLLDDPHVERMVQSFALLAARVHKRLDDDF", "soluble fraction (log2)": 0.121},
      {"sequence": "HMRDLTARQQQILALIRQHIADTGFPPTRAEIAAQLGFRSPNAAEEHLKALARKGVIELASGASRGIRLK", "soluble fraction (log2)": -0.86},
      {"sequence": "HMRDPFDALSARERAVASLVQRGLRNKEVASELGLTEGTVKVHLHKVFDKLGIRGRTELILLAQER", "soluble fraction (log2)": -1.35},
      {"sequence": "HMRDQAIDIYKTVHSVAEPYKEVFLLRVLGELSFKEISHIFGKSESWAKVTFFRAKIKVVEKREES", "soluble fraction (log2)": -3.97},
      {"sequence": "HMRDQQHNIYLLEKAKRLYEEFLGDNRHIIAAEMARFEAVLETQDAIIIQRAQQQFSEFLNRFDG", "soluble fraction (log2)": -2.12},
      {"sequence": "HMRDRYEYLKELRLYLSPLGRTEEDRVIEYYAELIGDKIESGIPENGVLSQLGTPRELADKILAETQEY", "soluble fraction (log2)": -0.377},
      {"sequence": "HMRDSLVGLEGVVVREVDDETLAGKVQIGSMEWSARSESGRIPAGRRVVVLRAEGVHIVVKEV", "soluble fraction (log2)": -0.407},
      {"sequence": "HMRDSWNEATKEKRYTEAYDALNSALKKTPATPHALSDALWIARELGRTNEEVQRLEWRLYALLTWIS", "soluble fraction (log2)": 0.241},
      {"sequence": "HMRDTDAEVTYKLNEPFKTMGSVSVEGKVLEFAGSKWFARAAEFASNTEVYPLAKNRVRLTFTFHGLTAP", "soluble fraction (log2)": 0.146},
      {"sequence": "HMREEFIGVLDGKVAIFHGRPERKGPLKEVTAIEVDKLPRQEQADLEKGLVIRTDKEKLQLMEGLAALLD", "soluble fraction (log2)": 0.683},
      {"sequence": "HMREELIALYRAIARLSEDEQELLNLFYFARRPLSEIAQLTGMTPGAAKTRLYRARRHLRREMEEDGYG", "soluble fraction (log2)": -1.07},
      {"sequence": "HMREGLRHLRVRMPGGAGETLAMLYREGEVLSQSSDGAFIEVEIRVAQSVAGRLLQMPGVQLTEEVG", "soluble fraction (log2)": -0.941},
      {"sequence": "HMREGNELLGKEGVTVSELRPAGIALIDGRRTDVVTDGEFVAVDQAVEVVEVSGNRVVVRRS", "soluble fraction (log2)": 0.305},
      {"sequence": "HMREIDIWVAEDADSQRIDKYLSMVVEDLSRSRIASLIEGGSILVNGEVIRAKYKVKPADHITAAFEDEM", "soluble fraction (log2)": -1.27},
      {"sequence": "HMREIKSNEILLEVENLKNSEFFNDINFNIKKGEIVGFSGLIGAGRTELALTLFGYYKAESGKVIQ", "soluble fraction (log2)": 0.101},
      {"sequence": "HMREIRIIAEEGHGRLDAFLAGREELGLSRSRIKGLIEEGQVTLNGAVPKAKQPVSPGDEIVVSVPD", "soluble fraction (log2)": 0.192},
      {"sequence": "HMREKMKGKILDYNFQESRGIISADDGNRYSFENSQWKGTQSPKVNQIVDFEIDGQNAKDIYLDK", "soluble fraction (log2)": 0.0796},
      {"sequence": "HMRESLSEAERHPRYLEGEDVVRMFLLMGDLSRVEAEVIALQWNAQEADRVGLPQDAKVFRTRAR", "soluble fraction (log2)": -0.523},
      {"sequence": "HMREVDKRYYKINIAGTDRIFTNVYRVGDRYSAYEADKNGKPGKFLYSLSQAEIDRAVISGSFDFK", "soluble fraction (log2)": -0.225},
      {"sequence": "HMREVSPEDLALMRRIDAWHLEHPFAGARLLRDLLRPEGFQAGRRHIGTLMARMGIEALYRK", "soluble fraction (log2)": -0.383},
      {"sequence": "HMREYVGLSPFNKEKTPSFYVNDEKGQFFDFSSGKNGDLITFLQETERLTFMEAVERLAAEAGLPMPA", "soluble fraction (log2)": -0.742},
      {"sequence": "HMRFANGHLIWDTIIELRNAERRINRRALADLTGLKPGVVDDHVERWIEKDQLRRAGNGELEVV", "soluble fraction (log2)": -1.36},
      {"sequence": "HMRFMRVSQSKSKNSTSLYIIESVYTKDNKHTTRIVKKLGTVEELSKEHEDPLAWAKEVAKQMTEEAEQN", "soluble fraction (log2)": -0.569}
    ]}
  ]
}
